# Reference: IntAct's records for PubMed 28490631
# B1: Triggering receptor expressed on myeloid cells 2 (Homo sapiens), Q9NZC2 (parent)
# chain: MEPLRLLILLFVTELSGAHNTTVFQGVAGQSLQVSCPYDSMKHWGRRKAWCRQLGEKGPCQRVVSTHNLWLLSFLRRWNGSTAITDDTLGGTLTITLRNLQPHDAGLYQCQSLHGSEADTLRKVLVEVLADPLDHRDAGDLWFPGESESFEDAHVEHSISRSLLEGEIPFPPTSILLLLACIFLIKILAASALWAAAWHGQKPGTHPPSELDCGHDPGYQLQTLPGLRDT
# Variants of: B1
# Conditions: with tyobp_human TYROBP
row,Variant,effect of a mutation on the interaction
1,MEPLRLLILLFVTELSGAHNTTVFQGVAGQSLQVSCPYDSMKHWGRRKAWCRQLGEKGPCQRVVSMHNLWLLSFLRRWNGSTAITDDTLGGTLTITLRNLQPHDAGLYQCQSLHGSEADTLRKVLVEVLADPLDHRDAGDLWFPGESESFEDAHVEHSISRSLLEGEIPFPPTSILLLLACIFLIKILAASALWAAAWHGQKPGTHPPSELDCGHDPGYQLQTLPGLRDT [T66M],increasing interaction strength
2,MEPLRLLILLFVTELSGAHNTTVFQGVAGQSLQVSCPYDSMKHWGRHKAWCRQLGEKGPCQRVVSTHNLWLLSFLRRWNGSTAITDDTLGGTLTITLRNLQPHDAGLYQCQSLHGSEADTLRKVLVEVLADPLDHRDAGDLWFPGESESFEDAHVEHSISRSLLEGEIPFPPTSILLLLACIFLIKILAASALWAAAWHGQKPGTHPPSELDCGHDPGYQLQTLPGLRDT [R47H],with no effect

# Variants of: B1
# Conditions: with tyobp_human TYROBP
# Remark: another data set of the same source
row,Variant,effect of a mutation on the interaction
1,MEPLRLLILLFVTELSGAHNTTVFQGVAGQSLQVSCPYDSMKHWGRRKAWCRQLGEKGPCQRVVSMHNLWLLSFLRRWNGSTAITDDTLGGTLTITLRNLQPHDAGLYQCQSLHGSEADTLRKVLVEVLADPLDHRDAGDLWFPGESESFEDAHVEHSISRSLLEGEIPFPPTSILLLLACIFLIKILAASALWAAAWHGQKPGTHPPSELDCGHDPGYQLQTLPGLRDT [T66M],with no effect
2,MEPLRLLILLFVTELSGAHNTTVFQGVAGQSLQVSCPYDSMKHWGRRKAWCRQLGEKGPCQRVVSTHNLWLLSFLRRWNGSTAITDDTLGGTLTITLRNLQPHDAGLYQCQSLHGCEADTLRKVLVEVLADPLDHRDAGDLWFPGESESFEDAHVEHSISRSLLEGEIPFPPTSILLLLACIFLIKILAASALWAAAWHGQKPGTHPPSELDCGHDPGYQLQTLPGLRDT [S116C],with no effect
